Results on 6 molecules are retold here after article PMC11068563, “The MCU and MCUb amino-terminal domains tightly interact: mechanisms for low conductance assembly of the mitochondrial calcium uniporter complex” (iScience, 2024).

B4: Red-(NHS)-labeled MCUb-NTD (MCUb residues 58-159) (domain or fragment, human, UniProt Q9NWR8 58-159, looked up)
chain: DEITVIYRHGLPLVTLTLPSRKERCQFVVKPMLSTVGSFLQDLQNEDKGIKTAAIFTADGNMISASTLMDILLMNDFKLVINKIAYDVQCPKREKPSNEHTA
modifications: Red-NHS dye covalently linked to primary amines
notes: MCU dominant negative beta subunit (MCUb), Homo sapiens, GenBank NP_060388.2, residues 58-159 (amino-terminal domain); Same chain as m1, with the label; source: E. coli BL21(DE3) codon plus, purified (Ni-NTA, thrombin, SEC), then labelled with the RED-NHS labeling kit (NanoTemper)
B5: MCUb-NTD-fluorescein (MCUb residues 58-159 labelled with fluorescein at Cys82 and Cys147) (domain or fragment, human, UniProt Q9NWR8 58-159, looked up)
chain: DEITVIYRHGLPLVTLTLPSRKERCQFVVKPMLSTVGSFLQDLQNEDKGIKTAAIFTADGNMISASTLMDILLMNDFKLVINKIAYDVQCPKREKPSNEHTA
modifications: fluorescein (fluorescein-methane thiosulfonate) on Cys82 and Cys147
notes: MCU dominant negative beta subunit (MCUb), Homo sapiens, GenBank NP_060388.2, residues 58-159 (amino-terminal domain); Same chain as m1, with the label; also called fluorescein-MCUb-NTD; MCUb_(58-159) labeled; source: E. coli BL21(DE3) codon plus, purified (Ni-NTA, thrombin, SEC), then labelled with fluorescein-MTS

One test addresses T1, MCUb-NTD (MCUb58-159) (Homo sapiens, UniProt Q9NWR8).
T1 construct: N-terminal domain, residues 58-159; pET-28a, E. coli BL21(DE3) codon plus; N-terminal 6xHis tag cut with thrombin
T1 sequence (Q9NWR8 58-159): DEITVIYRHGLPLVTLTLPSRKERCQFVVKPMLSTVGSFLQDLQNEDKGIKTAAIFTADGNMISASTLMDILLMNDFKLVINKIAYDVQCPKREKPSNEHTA
Briefly: ANS fluorescence titration, one-site fit. The class given is binding. The settings on record: read-out: apparent KD.

In test [1] the target is MCUb amino-terminal domain (MCUb-NTD), MCUb 58-159 (human) (UniProt Q9NWR8). Briefly: SEC-MALS; 100 uL injected at 4.0 mg mL-1; Superdex 200 Increase 10/300 GL; 20 mM Tris (pH 8.5), 150 mM NaCl, 1 mM DTT, 10 C; no divalent cations.
The target of test [2] is T2, Fluorescein-MCU-NTD (MCU 72-189 labelled with fluorescein-MTS at Cys97) (human, UniProt Q8NE86-1 72-189, fluorescein (fluorescein-methane thiosulfonate) on Cys97).
T2 construct: mitochondrial calcium uniporter (MCU), Homo sapiens, GenBank NP_612366.1, N-terminal domain, residues 72-189; also called MCU-NTD-fluorescein; source: labelled with fluorescein-MTS
T2 sequence (looked up): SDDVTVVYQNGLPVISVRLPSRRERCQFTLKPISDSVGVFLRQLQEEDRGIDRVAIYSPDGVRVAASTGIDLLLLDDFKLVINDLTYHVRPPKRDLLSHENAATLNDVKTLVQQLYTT
The experiment in a line: other fluorescence titration; steady-state fluorescein fluorescence; ~0.1 uM fluorescein-MCU-NTD titrated with MCUb-NTD; 20 mM Tris (pH 8.5), 150 mM NaCl, 1 mM DTT, 0.0001% (v/v) NP-40, 5 mM CaCl2; 22.5 C; one-site model. The settings on record: both partners purified.

Test [3] addresses T2, Fluorescein-MCU-NTD (MCU 72-189 …). The experiment in a line: other fluorescence titration; steady-state fluorescein fluorescence; ~0.1 uM fluorescein-MCU-NTD titrated with MCUb-NTD; 20 mM Tris (pH 8.5), 150 mM NaCl, 1 mM DTT, 0.0001% (v/v) NP-40, 5 mM MgCl2; 22.5 C; one-site model. To be noted: both partners purified.
In test [4] the target is MCUb amino-terminal domain (MCUb-NTD), MCUb 58-159 (human) (UniProt Q9NWR8). The experiment in a line: SEC-MALS; 100 uL injected at 3.0 mg mL-1 (mixed sample: final 1.5 mg mL-1 of each component); Superdex 200 Increase 10/300 GL; 20 mM Tris (pH 8.5), 150 mM NaCl, 1 mM DTT, 10 C; with 5 mM CaCl2.
The target of test [5] is T3, MCU amino-terminal domain (MCU-NTD), MCU 72-189 (human, UniProt Q8NE86-1 72-189).
T3 construct: mitochondrial calcium uniporter (MCU), Homo sapiens, GenBank NP_612366.1, N-terminal domain, residues 72-189; theoretical monomer mass printed as 13.8637 kDa
T3 sequence (looked up): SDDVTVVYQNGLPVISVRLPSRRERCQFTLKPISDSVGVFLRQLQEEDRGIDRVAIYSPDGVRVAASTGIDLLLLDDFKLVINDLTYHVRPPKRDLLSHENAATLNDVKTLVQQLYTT
Briefly: SEC-MALS; 100 uL injected at 3.0 mg mL-1 (mixed sample: 3 mg mL-1 each mixed, final 1.5 mg mL-1 of each component); Superdex 200 Increase 10/300 GL; 20 mM Tris (pH 8.5), 150 mM NaCl, 1 mM DTT, 10 C; no divalent cations. The settings on record: both partners purified.

The target of test [6] is MCUb amino-terminal domain (MCUb-NTD), MCUb 58-159 (human) (UniProt Q9NWR8). Briefly: SEC-MALS; 100 uL injected at 3.0 mg mL-1 (mixed sample: final 1.5 mg mL-1 of each component); Superdex 200 Increase 10/300 GL; 20 mM Tris (pH 8.5), 150 mM NaCl, 1 mM DTT, 10 C; with 5 mM MgCl2.
For test [7] the target is unchanged. The experiment in a line: SEC-MALS; 100 uL injected at 3.0 mg mL-1 (mixed sample: 3 mg mL-1 each mixed, final 1.5 mg mL-1 of each component); Superdex 200 Increase 10/300 GL; 20 mM Tris (pH 8.5), 150 mM NaCl, 1 mM DTT, 10 C; no divalent cations.
Test [8] has the same target. Briefly: SEC-MALS; 100 uL injected at 2.0 mg mL-1; Superdex 200 Increase 10/300 GL; 20 mM Tris (pH 8.5), 150 mM NaCl, 1 mM DTT, 10 C; no divalent cations.
The target of test [9] is T3, MCU amino-terminal domain (MCU-NTD), …. The experiment in a line: SEC-MALS; 100 uL injected at 3.0 mg mL-1 (mixed sample: final 1.5 mg mL-1 of each component); Superdex 200 Increase 10/300 GL; 20 mM Tris (pH 8.5), 150 mM NaCl, 1 mM DTT, 10 C; with 5 mM MgCl2. To be noted: both partners purified.
For test [10] the target is unchanged. Briefly: SEC-MALS; 100 uL injected at 3.0 mg mL-1 (mixed sample: final 1.5 mg mL-1 of each component); Superdex 200 Increase 10/300 GL; 20 mM Tris (pH 8.5), 150 mM NaCl, 1 mM DTT, 10 C; with 5 mM CaCl2. To be noted: both partners purified.
The target in test [11] is T4, MCU-NTD-fluorescein (MCU residues 72-189 labelled with fluorescein-MTS at Cys97) (human, UniProt Q8NE86-1 72-189, fluorescein (fluorescein-methane thiosulfonate) on Cys97).
T4 construct: mitochondrial calcium uniporter (MCU), Homo sapiens, GenBank NP_612366.1, residues 72-189 (amino-terminal domain); Same chain as m2, with the label; also called fluorescein-MCU-NTD; MCU_(72-189) labeled
T4 sequence (looked up): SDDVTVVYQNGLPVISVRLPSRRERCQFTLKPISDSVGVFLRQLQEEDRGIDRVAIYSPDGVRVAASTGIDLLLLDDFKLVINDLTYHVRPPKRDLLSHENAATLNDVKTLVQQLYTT
The experiment in a line: other fluorescence titration; steady-state fluorescein fluorescence; 0.1 uM MCU-NTD-fluorescein titrated with MCUb-NTD; 20 mM Tris (pH 8.5), 150 mM NaCl, 1 mM DTT, 0.0001% (v/v) NP-40, 22.5°C; one-site model. To be noted: both partners purified.

For test [12], the target named is B4. The experiment in a line: MST; Red-NHS-labelled MCUb-NTD, increasing MCU-NTD or MCU-NTD-D147R; 20 mM Tris (pH 8.5), 150 mM NaCl, 1 mM DTT, 0.05% (v/v) NP-40, 22°C; one-site model. To be noted: both partners purified.
In test [13] the target is B5. The experiment in a line: other fluorescence titration; steady-state fluorescein fluorescence; 0.1 uM MCUb-NTD-fluorescein titrated with MCU-NTD or MCU-NTD-D147R; 20 mM Tris (pH 8.5), 150 mM NaCl, 1 mM DTT, 0.0001% (v/v) NP-40, 22.5°C; one-site model. To be noted: both partners purified.
Test [14] addresses T5, MCU amino-terminal domain (MCU-NTD), MCU residues 72-189 (human, UniProt Q8NE86-1 72-189).
T5 construct: mitochondrial calcium uniporter (MCU), Homo sapiens, GenBank NP_612366.1, residues 72-189 (amino-terminal domain); theoretical monomer mass 13.8637 kDa is printed; also called MCU_(72-189); 15N-MCU-NTD; source: 15N-labelled in M9 minimal medium for NMR
T5 sequence (looked up): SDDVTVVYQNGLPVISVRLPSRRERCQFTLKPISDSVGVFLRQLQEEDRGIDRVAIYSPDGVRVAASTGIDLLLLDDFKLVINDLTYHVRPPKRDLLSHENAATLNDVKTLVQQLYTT
The experiment in a line: MST; Red-NHS-labelled MCUb-NTD, increasing MCU-NTD or MCU-NTD-D147R; 20 mM Tris (pH 8.5), 150 mM NaCl, 1 mM DTT, 0.05% (v/v) NP-40, 22°C; one-site model. To be noted: both partners purified.

Test [15] has as its target T5, MCU amino-terminal domain (MCU-NTD), …. Briefly: other fluorescence titration; steady-state fluorescein fluorescence; 0.1 uM MCUb-NTD-fluorescein titrated with MCU-NTD or MCU-NTD-D147R; 20 mM Tris (pH 8.5), 150 mM NaCl, 1 mM DTT, 0.0001% (v/v) NP-40, 22.5°C; one-site model. To be noted: both partners purified.

For `O=S(=O)(O)c1cccc2cccc(Nc3ccccc3)c12` [ANS, 8-Anilinonapthalene 1-sulfonic acid], the Kd at MCUb-NTD (MCUb58-159) is 1.5 ± 0.6 µM.

B1: MCUb amino-terminal domain (MCUb-NTD), MCUb 58-159 (domain or fragment, human, UniProt Q9NWR8 58-159, looked up)
chain: DEITVIYRHGLPLVTLTLPSRKERCQFVVKPMLSTVGSFLQDLQNEDKGIKTAAIFTADGNMISASTLMDILLMNDFKLVINKIAYDVQCPKREKPSNEHTA
notes: MCU dominant negative beta subunit (MCUb), Homo sapiens, GenBank NP_060388.2, N-terminal domain, residues 58-159; Theoretical monomer mass printed as 12.0098 kDa; a few vector residues probably remain after thrombin cleavage (pET-28a, NheI/XhoI); source: E. coli BL21(DE3) codon plus, purified (Ni-NTA, thrombin, SEC); not shown: 6xHis, N-terminal, cleaved
B1: the stoichiometry N is 1.02 in test [1]; 0.92 in test [4]; 1.68 in test [5]; 0.92 in test [6]; 0.97 in test [7]; 0.95 in test [8]. Besides, the “stoichiometry N” value was found to be 1.61 in [9] and 1.72 in test [10]. Further, the Kd is 0.09 µM in test [2] and 0.16 µM in [3].

B2: MCUb amino-terminal domain (MCUb-NTD), MCUb residues 58-159 (domain or fragment, human, UniProt Q9NWR8 58-159, looked up)
chain: DEITVIYRHGLPLVTLTLPSRKERCQFVVKPMLSTVGSFLQDLQNEDKGIKTAAIFTADGNMISASTLMDILLMNDFKLVINKIAYDVQCPKREKPSNEHTA
notes: MCU dominant negative beta subunit (MCUb), Homo sapiens, GenBank NP_060388.2, residues 58-159 (amino-terminal domain); Cloned into pET-28a by NheI and XhoI; printed as 6xHis-MCUb_(58-159); theoretical monomer mass 12.0098 kDa and 107 expected backbone amides are printed, so a few vector residues probably remain after thrombin cleavage (surmise); also called MCUb_(58-159); 15N-MCUb-NTD; source: E. …
For the molecule B2, the Kd in test [11] is 0.125 µM.

B3: MCU-NTD-D147R (MCU residues 72-189 with D147R) (domain or fragment, human, UniProt Q8NE86-1 72-189, looked up)
chain: SDDVTVVYQNGLPVISVRLPSRRERCQFTLKPISDSVGVFLRQLQEEDRGIDRVAIYSPDGVRVAASTGIDLLLLRDFKLVINDLTYHVRPPKRDLLSHENAATLNDVKTLVQQLYTT
notes: mitochondrial calcium uniporter (MCU), Homo sapiens, GenBank NP_612366.1, residues 72-189 (amino-terminal domain) with D147R in the MCU regulating acidic patch; also called D147R MCU_(72-189)
For B3, the “fold change of KD against MCU-NTD” value in test [12] and in test [13] was ~2 fold each time.

B4 registered a Kd in test [14] of 4.65 µM.

Turning to B5, the Kd in [15] stood at 0.133 µM.
